From US20240360218A1

Biological target: human PD-L1 (hPD-L1), full length, expressed on cells (human) (UniProt Q9NZQ7)
Test: flow cytometry, AlexaFluor647-labelled antibody (5 ug/mL per p-1191) on monocyte-derived dendritic cells

Sequence of human PD-L1 (hPD-L1), full length, expressed on cells (human) (Q9NZQ7 19-290 limits assumed): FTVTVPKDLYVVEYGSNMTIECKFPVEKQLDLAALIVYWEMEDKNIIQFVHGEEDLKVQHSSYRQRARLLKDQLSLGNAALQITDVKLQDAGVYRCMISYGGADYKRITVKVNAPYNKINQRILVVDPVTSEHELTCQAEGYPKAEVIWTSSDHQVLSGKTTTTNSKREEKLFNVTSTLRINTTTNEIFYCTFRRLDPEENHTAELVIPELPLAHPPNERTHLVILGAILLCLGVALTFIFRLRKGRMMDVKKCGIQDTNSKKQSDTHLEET

Geometric Mean : R1-A: 379
Substance: Isotype hu IgG1 (D107) (antibody)
